Test results as given in paper PMC5396282, “Characterization of Carboxylic Acid Reductases as Enzymes in the Toolbox for Synthetic Chemistry” (Chemcatchem, 2017).

Assays:
mpCAR = biological target: T1, mpCAR (Mycolicibacterium phlei, UniProt A0A5N5VEC4); test: NADPH oxidation at […] nm, product inhibition kinetics; assay type: biochemical; details: pH 7.5, 30 °C, 10 mM MgCl2
T1 construct: gene car; expressed in E. coli BL21(DE3) with B. subtilis Sfp (phosphopantetheinylated); around 130 kDa

COc1ccc(C(=O)O)cc1 = test: purified protein; details: 1 mM ATP, 0.25 mM NADPH, 10 mM MgCl2, 100 mM Tris-HCl pH 7.5, 30 °C
CCCCCCCCCCCC(=O)O [1] = test: purified protein; assay type: biochemical, Nocardia iowensis; details: 1 mM ATP, […] NADPH, 10 mM MgCl2, 100 mM Tris-HCl pH 7.5, 30 °C
O=C(O)/C=C/c1ccccc1 = test: purified protein; assay type: biochemical, Nocardia iowensis; details: 1 mM ATP, […] NADPH, 10 mM MgCl2, 100 mM Tris-HCl pH 7.5, 30 °C
CCCCCCCCCCCC(=O)O [2] = test: purified protein; details: 1 mM ATP, […] NADPH, 10 mM MgCl2, 100 mM Tris-HCl pH 7.5, 30 °C
CCCCCCCCCCCCCCCCCC(=O)O [3] = test: purified protein; details: 1 mM ATP, […] NADPH, 10 mM MgCl2, 100 mM Tris-HCl pH 7.5, 30 °C
CCCCCCCC(=O)O = test: purified protein; assay type: biochemical, Tsukamurella paurometabola; details: 1 mM ATP, […] NADPH, 10 mM MgCl2, 100 mM Tris-HCl pH 7.5, 30 °C
CCCCCCCCCCCC(=O)O [4] = test: purified protein; assay type: biochemical, Tsukamurella paurometabola; details: 1 mM ATP, […] NADPH, 10 mM MgCl2, 100 mM Tris-HCl pH 7.5, 30 °C
CCCCCCCCCCCCCCCCCC(=O)O [5] = test: purified protein; assay type: biochemical, Tsukamurella paurometabola; details: 1 mM ATP, […] NADPH, 10 mM MgCl2, 100 mM Tris-HCl pH 7.5, 30 °C
O=C(O)C#Cc1ccccc1 = test: purified protein; assay type: biochemical, Tsukamurella paurometabola; details: 1 mM ATP, […] NADPH, 10 mM MgCl2, 100 mM Tris-HCl pH 7.5, 30 °C
purified protein [6] = substrate: CCCCCCCC(=O)O; test: purified protein; details: 1 mM ATP, 0.25 mM NADPH, 10 mM MgCl2, 100 mM Tris-HCl pH 7.5, 30 °C
purified protein [7] = substrate: Cc1ccc(C(=O)O)cc1; test: purified protein; details: 1 mM ATP, 0.25 mM NADPH, 10 mM MgCl2, 100 mM Tris-HCl pH 7.5, 30 °C
purified protein [8] = substrate: O=C(O)/C=C/c1ccccc1; test: purified protein; details: 1 mM ATP, 0.25 mM NADPH, 10 mM MgCl2, 100 mM Tris-HCl pH 7.5, 30 °C
purified protein [9] = substrate: CCCCCCCCCCCC(=O)O; test: purified protein; assay type: biochemical, Mycolicibacterium smegmatis; details: 1 mM ATP, […] NADPH, 10 mM MgCl2, 100 mM Tris-HCl pH 7.5, 30 °C

## Nc1ncnc2c1ncn2[C@@H]1O[C@H](COP(=O)(O)O)[C@@H](O)[C@H]1O [AMP]
mpCAR; competitive with ATP
  Ki: 8200 ± 900 µM

## NC(=O)c1ccc[n+]([C@@H]2O[C@H](COP(=O)(O)OP(=O)(O)OC[C@H]3O[C@@H](n4cnc5c(N)ncnc54)[C@H](OP(=O)(O)O)[C@@H]3O)[C@@H](O)[C@H]2O)c1 [NADP^+]
mpCAR; competitive with NADPH
  Ki: 143 ± 8 µM

## O=P(O)(O)OP(=O)(O)O [PPi]
mpCAR; mixed inhibition with ATP
  Ki: 220 ± 50 µM

## niCAR (Nocardia iowensis)
COc1ccc(C(=O)O)cc1
  Km: 250 ± 10 µM
  kcat: 0.817 s⁻¹
  kcat/Km: 3330 M⁻¹ s⁻¹
CCCCCCCCCCCC(=O)O [1]
  Km: 20 ± 10 µM
  kcat: 2.62 ± 0.15 s⁻¹
  kcat/Km: 117000 ± 33300 M⁻¹ s⁻¹
O=C(O)/C=C/c1ccccc1
  Km: 50 ± 20 µM
  kcat: 0.128 ± 0.0117 s⁻¹
  kcat/Km: 2830 ± 1170 M⁻¹ s⁻¹

## noCAR (Nocardia otitidiscaviarum)
CCCCCCCCCCCC(=O)O [2]
  Km: 40 ± 10 µM
  kcat: 1.65 ± 0.05 s⁻¹
  kcat/Km: 41700 ± 5000 M⁻¹ s⁻¹
CCCCCCCCCCCCCCCCCC(=O)O [3]
  Km: 20 ± 10 µM
  kcat: 0.183 ± 0.0167 s⁻¹
  kcat/Km: 8330 ± 5000 M⁻¹ s⁻¹

## tpCAR (Tsukamurella paurometabola DSM 20162)
CCCCCCCC(=O)O
  Km: 200 ± 10 µM
  kcat: 3.65 ± 0.05 s⁻¹
  kcat/Km: 19000 ± 833 M⁻¹ s⁻¹
CCCCCCCCCCCC(=O)O [4]
  Km: 40 ± 10 µM
  kcat: 2.62 ± 0.0833 s⁻¹
  kcat/Km: 60000 ± 6670 M⁻¹ s⁻¹
CCCCCCCCCCCCCCCCCC(=O)O [5]
  Km: 120 ± 30 µM
  kcat: 0.25 ± 0.0167 s⁻¹
  kcat/Km: 2000 ± 500 M⁻¹ s⁻¹
O=C(O)C#Cc1ccccc1
  Km: 90 ± 20 µM
  kcat: 0.1 ± 0.0667 s⁻¹
  kcat/Km: 1170 ± 667 M⁻¹ s⁻¹

B1: msCAR (Mycolicibacterium smegmatis MC2 155) (protein)
chain: MTSDVHDATDGVTETALDDEQSTRRIAELYATDPEFAAAAPLPAVVDAAHKPGLRLAEILQTLFTGYGDRPALGYRARELATDEGGRTVTRLLPRFDTLTYAQVWSRVQAVAAALRHNFAQPIYPGDAVATIGFASPDYLTLDLVCAYLGLVSVPLQHNAPVSRLAPILAEVEPRILTVSAEYLDLAVESVRDVNSVSQLVVFDHHPEVDDHRDALARAREQLAGKGIAVTTLDAIADEGAGLPAEPIYTADHDQRLAMILYTSGSTGAPKGAMYTEAMVARLWTMSFITGDPTPVINVNFMPLNHLGGRIPISTAVQNGGTSYFVPESDMSTLFEDLALVRPTELGLVPRVADMLYQHHLATVDRLVTQGADELTAEKQAGAELREQVLGGRVITGFVSTAPLAAEMRAFLDITLGAHIVDGYGLTETGAVTRDGVIVRPPVIDYKLIDVPELGYFSTDKPYPRGELLVRSQTLTPGYYKRPEVTASVFDRDGYYHTGDVMAETAPDHLVYVDRRNNVLKLAQGEFVAVANLEAVFSGAALVRQIFVYGNSERSFLLAVVVPTPEALEQYDPAALKAALADSLQRTARDAELQSYEVPADFIVETEPFSAANGLLSGVGKLLRPNLKDRYGQRLEQMYADIAATQANQLRELRRAAATQPVIDTLTQAAATILGTGSEVASDAHFTDLGGDSLSALTLSNLLSDFFGFEVPVGTIVNPATNLAQLAQHIEAQRTAGDRRPSFTTVHGADATEIRASELTLDKFIDAETLRAAPGLPKVTTEPRTVLLSGANGWLGRFLTLQWLERLAPVGGTLITIVRGRDDAAARARLTQAYDTDPELSRRFAELADRHLRVVAGDIGDPNLGLTPEIWHRLAAEVDLVVHPAALVNHVLPYRQLFGPNVVGTAEVIKLALTERIKPVTYLSTVSVAMGIPDFEEDGDIRTVSPVRPLDGGYANGYGNSKWAGEVLLREAHDLCGLPVATFRSDMILAHPRYRGQVNVPDMFTRLLLSLLITGVAPRSFYIGDGERPRAHYPGLTVDFVAEAVTTLGAQQREGYVSYDVMNPHDDGISLDVFVDWLIRAGHPIDRVDDYDDWVRRFETALTALPEKRRAQTVLPLLHAFRAPQAPLRGAPEPTEVFHAAVRTAKVGPGDIPHLDEALIDKYIRDLREFGLI
notes: expressed in E. coli BL21(DE3) with B. subtilis Sfp (phosphopantetheinylated); one of three M. smegmatis paralogues, distinct from the CAR of Moura et al
Purified protein [6]
  Km: 100 ± 10 µM
  kcat: 4.93 s⁻¹
  kcat/Km: 50000 M⁻¹ s⁻¹
Purified protein [7]
  Km: 160 ± 20 µM
  kcat: 2.57 s⁻¹
  kcat/Km: 15000 M⁻¹ s⁻¹
Purified protein [8]
  Km: 75 ± 4 µM
  kcat: 1.97 s⁻¹
  kcat/Km: 26700 M⁻¹ s⁻¹
Purified protein [9]
  Km: 50 ± 10 µM
  kcat: 2.18 ± 0.0833 s⁻¹
  kcat/Km: 45000 ± 6670 M⁻¹ s⁻¹
